Measured values published in article PMC11623273, “Epitope-focused immunogens targeting the hepatitis C virus glycoproteins induce broadly neutralizing antibodies” (Science Advances, 2024).

What was measured:
[1] = molecular target: T1, E1_S1 (design 1W4K_08), epitope scaffold presenting the HCV E1 epitope (residues 314-324) (designed scaffold from Pyrobaculum …)
T1 chain: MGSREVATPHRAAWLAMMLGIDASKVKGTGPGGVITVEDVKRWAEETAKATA

[2] = molecular target: T1, E1_S1 (design 1W4K_08), epitope …; assay: grating-coupled interferometry (GCI, Creoptix WAVE); settings: both partners purified
[3] = molecular target: E2_S3_3 (design 4CIL_03), epitope scaffold presenting HCV E2 epitope I; settings: both partners purified
[4] = molecular target: T2, E2_S2_1 (design 2K6Z_01), epitope scaffold presenting HCV E2 epitope I; settings: both partners purified
T2 chain: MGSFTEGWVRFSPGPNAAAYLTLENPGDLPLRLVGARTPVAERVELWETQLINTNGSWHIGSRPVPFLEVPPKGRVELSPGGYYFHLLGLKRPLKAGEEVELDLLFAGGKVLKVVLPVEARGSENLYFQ

B1: N15 (antibody, V domains shown)
VH: QVQLVESGGGVVQPGRSLRLSCAASGFTFSSYVMHWVRQAPGKGLEWVAVISYDGSNKYYADSVKGRFTISRDNSKNTLYLQMNSLRAEDTAVYYCARAPLYDILSDYWGQGTLVTVSS
VL: QLVLTQSPSASASLGASVKLTCTLSSGHSSYAIAWHQQQPEKGPRYLMKLNSDGSHSKGDGIPDRFSGSSSGAERYLTISSLQSEDEADYYCQTWGTGIVVFGGGTKLTVL
Q: Does B1 bind [1]?
A: binds

B2: Fab fragment of neutralizing antibody IGH526 (Fab, V domains shown)
VH: VQLLEQSGAEVKRPGASVKVSCKASGYTFTSYAIHWVRQAPGQRLEWMGWINPGNGNAKYSQRFQGRVIISRDTSATTSYMELSSLTSEDTAVYSCARDRGFDLLTGHYLGLDPWGQGTLVTVSS
VL: ELTLTQPASASATPGQRVTISCSGSSSNIGGNTVNWYQHLPGAAPKLLIHNNDLRPSGVPDRFSGSKSGTSASLAVSGLQSEDEADYFCAAWDDGLNGWVFGGGTKLTVL
Q: What does the source list for B2?
A: Kd [2]: 1.4 nM; koff [2]: 0.00181 s⁻¹; kon [2]: 1.32e+06 M⁻¹ s⁻¹

B3: Fab fragment of neutralizing antibody HCV1 (Fab, V domains shown)
VH: EVQLLESGGGVVQPGRSLRLSCTASGFTFNNYGMHWVRQTPGKGLEWLAVIWFDENNKYYADSVRGRFTISRDNSKNTLFLQMNSLKTEDTAMYYCARDISLVRDAFIYFDFWGLGTLVTVSS
VL: ELTLTQSPATLSLSPGERATLSCRASQSVSSYLAWYQQKPGQAPRLLIYDASNRATGIPARFSGSGSGTDFTLTISSLEPEDFAVYYCQQRSNWITFGQGTRLEIK
notes: also called Fab HCV1; F(ab) HCV1
Q: How did the Kd [3] turn out when B3 was run?
A: 2.8 nM

Q: What about the koff [3] of the same binder?
A: 0.000369 s⁻¹

Q: And the kon [3]?
A: 133000 M⁻¹ s⁻¹

Q: And the Kd [4]?
A: 23 nM

Q: And the koff [4]?
A: 0.00121 s⁻¹

Q: What about the kon [4] of the same binder?
A: 52700 M⁻¹ s⁻¹
